According to patent US20250163139A1 (Hoffmann-La Roche, published 2025):

T1: human VEGF121 (human, UniProt P15692 181-395)
T1 construct: The limits of the proteins used (Humanzyme HZ-1206); also called human VEGFA121
T1 sequence: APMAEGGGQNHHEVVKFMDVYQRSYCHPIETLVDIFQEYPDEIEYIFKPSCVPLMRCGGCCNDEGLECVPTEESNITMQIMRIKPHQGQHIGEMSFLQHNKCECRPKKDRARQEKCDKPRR

T2: cynomolgus monkey IL6 (cynomolgus monkey, UniProt P79341 28-212, limits assumed)
T2 construct: also called cynomolgus IL6; cyIL-6
T2 sequence (looked up): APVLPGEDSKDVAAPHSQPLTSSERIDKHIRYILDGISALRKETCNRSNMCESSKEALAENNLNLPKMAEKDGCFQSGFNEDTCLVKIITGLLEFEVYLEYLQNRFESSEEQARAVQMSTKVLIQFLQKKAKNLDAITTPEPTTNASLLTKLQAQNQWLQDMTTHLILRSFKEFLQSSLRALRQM


Columns and labels:
[1] = biological target: T1, human VEGF121; test: competition ELISA: Fab titrated against 10 pM VEGF121, free VEGF detected on plate-coated VEGF-R1
Procedure: (§1) The contact time between the Fab-Antigen mixture and the receptor-coated plate was restricted to 10 min at RT in order to minimize interference with the binding equilibria. […] The latter is detected exploiting the chromogenic conversion of the HRP substrate 3,3′,5,5′-tetramethylbenzidine TMB to 3,3′,5,5′-tetramethylbenzidine […], which can be followed by a change in absorbance at 450 nm. TMB was prewarmed to room temperature and incubated on the plate for 5 min before being quenched by the addition of IN H₂SO₄.

[2] = biological target: T3, human IL6 (human, UniProt P05231 30-212); test: SPR, Fab captured on anti-Fab chip, human IL6 as analyte
T3 construct: also called Interleukin-6
Procedure: (§2) A Human Fab Binder (28958325, Cytiva) was diluted at a final concentration of 10 μg/ml in 10 mM sodium acetate buffer, pH 5.0 and immobilized on a CM5 sensor chip using standard amine coupling chemistry. […] The reference channel was treated accordingly.
(§3) Prior to the protein measurements five startup cycles were performed for conditioning purposes. On each cycle, HBS-EP+ buffer was flowed for 120 s followed by the regeneration of the derivatized chip surface by applying 10 mM Glycine buffer pH2.0 for 60 s. Fab fragment at a concentration of 75 nM was captured on this surface for 60 s at a flow rate of 10 μl/min in HBS-EP+ buffer. No Fab fragment was applied to the reference channel. […] Regeneration of the derivatized chip surface was achieved as described above. Data were evaluated with 8K Evaluation software (Biacore Insight Evaluation 3.0). Double referencing was used and the 1:1 Binding model was used to fit the raw data.

[3] = biological target: human VEGF165 (human, UniProt P15692-4 27-191); test: competition ELISA: Fab titrated against 10 pM VEGF165, free VEGF detected on plate-coated VEGF-R1
Procedure: as §1

[4] = biological target: T2, cynomolgus monkey IL6; test: SPR, Fab captured on anti-Fab chip, cynomolgus IL6 as analyte
Procedure: as §2, §3

[5] = biological target: T3, human IL6; test: cell-based or functional assay
[6] = biological target: human VEGF-A (isoform not given) (human, UniProt P15692-4 27-191, limits assumed); test: cell-based or functional assay
[7] = biological target: T3, human IL6; test: SPR in analogy to Example 3, Fab captured on anti-Fab chip
Procedure: as §2, §3

[8] = biological target: T2, cynomolgus monkey IL6; test: as above
Procedure: as §2, §3

Binder	IC50 [1] [nM]	Kd [2] [nM]	IC50 [3] [nM]	Kd [4] [nM]	IC50, inhibition of IL-6/IL-6R-induced ICAM-1 surface expression on HRMECs (flow cytometry) [5] [nM]	IC50, inhibition of VEGF-A-induced HUVEC proliferation (alamarBlue) [6] [nM]	Kd [7] [nM]	Kd [8] [nM]
6HVL_4 (Fab, V domains shown, Bispecific Fab; also called VEGF/IL6-bispecific antibody 6HVL_4) VH: YPQLVESGGGLVQPGGSLRLSCEASVLFKHQDMSWVRQAPGKGLEWVGSIDPRGDHKYYNTKFIDRFTISRDNSKNTLYLQMNSLRAEDTAVYYCARDLDFMDEWGQGTLVTVSS VL: AIYMHQEPSSLSASVGDRVTITCQASYWLNSELAWYQQKPGKAPKLLIYDGDDRYPEVPSRFSGSGSHEDYTLTISSLQPEDFATYYCQQYRYTPYTFGQGTKLEIKR	0.458	0.069	0.111	1.48	1.52	2.06	–	–
6HdL2.05 (Fab, V domains shown, also called monospecific anti-IL6 antibody 6HdL2.05) VH: YPQLVESGGGLVQPGGSLRLSCEASVLFKHQDMSWVRQAPGKGLEWVGSISPSGGSTYYNDNVLGRFTISRDNSKNTLYLQMNSLRAEDTAVYYCARDLDFMDEWGQGTLVTVSS VL: DIQMTQSPSSLSASVGDRVTITCRASQGISNYLAWYQQKPGKAPKLLIYDGDDRYPEVPSRFSGSGSGTDFTLTISSLQPEDFATYYCQQYYSTPYTFGQGTKLEIKR	–	–	–	–	–	–	0.022	1.3

Further binders by falling Kd [2], results first:

IC50 [1] [nM]	Kd [2] [nM]	IC50 [3] [nM]	Kd [4] [nM]	IC50, inhibition of IL-6/IL-6R-induced ICAM-1 surface expression on HRMECs (flow cytometry) [5] [nM]	IC50, inhibition of VEGF-A-induced HUVEC proliferation (alamarBlue) [6] [nM]	Kd [7] [nM]	Kd [8] [nM]	Binder
–	3.5	–	–	–	–	–	–	VH6L-BM (Fab, V domains shown, Prior art control, prepared by recombinant expression; also called bispecific antibody VH6L of WO2012/163520) VH: YYQLVESGGGLVQPGGSLRLSCAADGFLFSGYAMSWIRQAPGKGLEWIGQISGSGGSTVYNYNVLGRFTISRDNSKNTLYLQMNSLRAEDTAVYYCARDTGYFDHWGQGTLVTVSS VL: NIQKTQSPSSLSASVGDRVTITCRALWHISSYLAWYQQKPGKAPKLLIYAASHLHYGVPSRFSGSGSGTDFTLTISSLQPEDFATYYCQQYSGLPYTFGQGTKVEIK
0.528	0.065	0.135	1.39	–	–	–	–	6HVL_4_YHE (Fab, V domains shown) VH: YPQLVESGGGLVQPGGSLRLSCEASVLFKHQDMSWVRQAPGKGLEWVGSIDPRGDHKYYNTKFIDRFTISRDNSKNTLYLQMNSLRAEDTAVYYCARDLDFMDEWGQGTLVTVSS VL: AIQMTQSPSSLSASVGDRVTITCQASYWLNSELAWYQQKPGKAPKLLIYDGDDRYPEVPSRFSGSGSHEDYTLTISSLQPEDFATYYCQQYRYTPYTFGQGTKLEIKR
